Results reported in publication PMC10397247.

What was measured:
Assay in all cases: two-hybrid library CCNG1;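 further: natural log of median RNA to DNA barcode read ratio; higher means stronger binding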
O3-bS = target: T1, O3-bS
T1 chain: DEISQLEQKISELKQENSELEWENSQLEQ

O7-bS = target: T2, O7-bS
T2 chain: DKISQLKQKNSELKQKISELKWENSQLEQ

O2-bS = target: T3, O2-bS
T3 chain: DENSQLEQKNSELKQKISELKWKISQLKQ

O4-bS = target: T4, O4-bS
T4 chain: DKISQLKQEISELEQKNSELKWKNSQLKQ

O5-bS = target: T5, O5-bS
T5 chain: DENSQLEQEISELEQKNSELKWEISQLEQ

O16-bS = target: T6, O16-bS
T6 chain: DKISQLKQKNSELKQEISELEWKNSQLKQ

O8-bS = target: T7, O8-bS
T7 chain: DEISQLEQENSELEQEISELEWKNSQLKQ

O6-bS = target: T8, O6-bS
T8 chain: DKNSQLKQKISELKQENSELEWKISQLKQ

4H850-bN = target: T9, 4H850-bN
T9 chain: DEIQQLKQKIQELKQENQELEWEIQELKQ

4H570-bN = target: T10, 4H570-bN
T10 chain: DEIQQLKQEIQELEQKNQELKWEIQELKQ

4H3858-bN = target: T11, 4H3858-bN
T11 chain: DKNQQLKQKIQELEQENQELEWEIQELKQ

4H3974-bN = target: T12, 4H3974-bN
T12 chain: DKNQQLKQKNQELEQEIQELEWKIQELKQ

O15 = target: T13, O15
T13 chain: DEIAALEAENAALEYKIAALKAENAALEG

4H1899-bA = target: T14, 4H1899-bA
T14 chain: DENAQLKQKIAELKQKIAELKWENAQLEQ

4H591-bA = target: T15, 4H591-bA
T15 chain: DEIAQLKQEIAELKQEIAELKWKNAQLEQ

4H3462-bA = target: T16, 4H3462-bA
T16 chain: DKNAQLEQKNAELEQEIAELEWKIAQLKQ

4H2586-bN = target: T17, 4H2586-bN
T17 chain: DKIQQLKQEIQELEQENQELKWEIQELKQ

4H3175-bA = target: T18, 4H3175-bA
T18 chain: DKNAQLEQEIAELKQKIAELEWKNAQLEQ

4H906-bA = target: T19, 4H906-bA
T19 chain: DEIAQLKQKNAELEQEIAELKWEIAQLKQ

4H3613-bA = target: T20, 4H3613-bA
T20 chain: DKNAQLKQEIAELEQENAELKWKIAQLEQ

4H3162-bA = target: T21, 4H3162-bA
T21 chain: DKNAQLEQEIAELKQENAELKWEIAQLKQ

4H3858-bA = target: T22, 4H3858-bA
T22 chain: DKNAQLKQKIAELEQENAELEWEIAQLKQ

4H626-bA = target: T23, 4H626-bA
T23 chain: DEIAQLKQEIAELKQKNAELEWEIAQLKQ

4H850-bA = target: T24, 4H850-bA
T24 chain: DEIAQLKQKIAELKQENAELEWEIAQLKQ

4H3497-bA = target: T25, 4H3497-bA
T25 chain: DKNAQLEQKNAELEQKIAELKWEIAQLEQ

4H3974-bA = target: T26, 4H3974-bA
T26 chain: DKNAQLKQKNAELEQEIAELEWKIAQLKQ

4H3817-bA = target: T27, 4H3817-bA
T27 chain: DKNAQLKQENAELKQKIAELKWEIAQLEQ

4H570-bA = target: T28, 4H570-bA
T28 chain: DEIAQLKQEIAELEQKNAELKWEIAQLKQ

4H3628-bA = target: T29, 4H3628-bA
T29 chain: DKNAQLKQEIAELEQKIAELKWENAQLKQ

4H1985-bA = target: T30, 4H1985-bA
T30 chain: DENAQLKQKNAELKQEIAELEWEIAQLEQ

4H3926-bA = target: T31, 4H3926-bA
T31 chain: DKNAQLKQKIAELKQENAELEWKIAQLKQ

4H3277-bA = target: T32, 4H3277-bA
T32 chain: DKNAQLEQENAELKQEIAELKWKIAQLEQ

4H3298-bA = target: T33, 4H3298-bA
T33 chain: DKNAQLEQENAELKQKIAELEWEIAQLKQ

4H3961-bN = target: T34, 4H3961-bN
T34 chain: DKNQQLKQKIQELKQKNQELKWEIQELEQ

4H363-bN = target: T35, 4H363-bN
T35 chain: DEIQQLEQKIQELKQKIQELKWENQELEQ

4H3907-bN = target: T36, 4H3907-bN
T36 chain: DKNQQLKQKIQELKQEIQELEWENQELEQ

4H470-bN = target: T37, 4H470-bN
T37 chain: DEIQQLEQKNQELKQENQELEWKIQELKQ

4H3638-bA = target: T38, 4H3638-bA
T38 chain: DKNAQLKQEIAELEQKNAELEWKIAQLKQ

4H3414-bA = target: T39, 4H3414-bA
T39 chain: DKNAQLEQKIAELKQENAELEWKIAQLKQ

O8-bN = target: T40, O8-bN
T40 chain: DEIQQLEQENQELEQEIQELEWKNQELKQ

4H570-bH = target: T41, 4H570-bH
T41 chain: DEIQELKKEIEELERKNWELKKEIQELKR

4H584-bA = target: T42, 4H584-bA
T42 chain: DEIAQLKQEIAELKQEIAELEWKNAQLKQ

4H3631-bA = target: T43, 4H3631-bA
T43 chain: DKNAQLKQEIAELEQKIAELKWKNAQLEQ

4H3172-bA = target: T44, 4H3172-bA
T44 chain: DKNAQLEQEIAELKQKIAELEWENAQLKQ

4H3129-bA = target: T45, 4H3129-bA
T45 chain: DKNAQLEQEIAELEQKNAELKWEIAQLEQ

4H953-bA = target: T46, 4H953-bA
T46 chain: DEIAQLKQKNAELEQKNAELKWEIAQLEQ

4H619-bA = target: T47, 4H619-bA
T47 chain: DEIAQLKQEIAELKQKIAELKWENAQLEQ

P7mSN = target: T48, P7mSN
T48 chain: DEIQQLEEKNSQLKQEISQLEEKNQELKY

P8mSN = target: T49, P8mSN
T49 chain: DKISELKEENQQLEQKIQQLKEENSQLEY

P6mSN = target: T50, P6mSN
T50 chain: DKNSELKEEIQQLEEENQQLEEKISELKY

P5mSN = target: T51, P5mSN
T51 chain: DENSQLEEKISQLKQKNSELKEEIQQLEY

4H4038-bH = target: T52, 4H4038-bH
T52 chain: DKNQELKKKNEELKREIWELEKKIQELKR

P6A = target: T53, P6A
T53 chain: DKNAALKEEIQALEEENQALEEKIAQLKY

P5A = target: T54, P5A
T54 chain: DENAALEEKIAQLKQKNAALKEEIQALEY

P4A = target: T55, P4A
T55 chain: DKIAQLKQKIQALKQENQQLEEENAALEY

P7A = target: T56, P7A
T56 chain: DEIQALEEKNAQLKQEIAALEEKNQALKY

P8A = target: T57, P8A
T57 chain: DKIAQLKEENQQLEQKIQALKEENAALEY

P9A = target: T58, P9A
T58 chain: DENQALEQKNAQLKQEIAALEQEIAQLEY

4H3907-bH = target: T59, 4H3907-bH
T59 chain: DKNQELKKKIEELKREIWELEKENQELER

4H470-bH = target: T60, 4H470-bH
T60 chain: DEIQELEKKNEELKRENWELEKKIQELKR

4H3961-bH = target: T61, 4H3961-bH
T61 chain: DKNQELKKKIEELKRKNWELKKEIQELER

B1: O16-bS (peptide)
chain: DKISQLKQKNSELKQEISELEWKNSQLKQ
interaction score (O3-bS): -1.15 | interaction score (O7-bS): -0.709 | interaction score (O2-bS): -0.368 | interaction score (O4-bS): -0.194 | interaction score (O5-bS): -3.22 | interaction score (O16-bS): -1.23 | interaction score (O8-bS): -1.97 | interaction score (O6-bS): -0.0299

B2: 4H3858-bN (peptide)
chain: DKNQQLKQKIQELEQENQELEWEIQELKQ
interaction score (4H850-bN): -1.15 | interaction score (4H570-bN): 0.143 | interaction score (4H3858-bN): -0.115 | interaction score (4H3974-bN): -1.21 | interaction score (O15): -1.67

B3: 4H1899-bA (peptide)
chain: DENAQLKQKIAELKQKIAELKWENAQLEQ
interaction score (4H1899-bA): -0.612 | interaction score (4H591-bA): -1.45 | interaction score (4H3462-bA): -0.31 | interaction score (4H2586-bN): -1.99 | interaction score (4H3175-bA): -1.03 | interaction score (4H906-bA): -0.765 | interaction score (4H3613-bA): -1.23 | interaction score (4H3162-bA): -1.28 | interaction score (4H3858-bA): -0.565 | interaction score (4H626-bA): -1.38 | interaction score (4H850-bA): -0.973 | interaction score (4H3497-bA): -0.482 | interaction score (4H3974-bA): -0.528 | interaction score (4H3817-bA): -0.216 | interaction score (4H570-bA): 0.517 | interaction score (4H3628-bA): 0.582 | interaction score (4H1985-bA): 0.619 | interaction score (4H3926-bA): -1.03 | interaction score (4H3277-bA): -1.41 | interaction score (4H3298-bA): -0.142

B4: 4H363-bN (peptide)
chain: DEIQQLEQKIQELKQKIQELKWENQELEQ
interaction score (4H3961-bN): -0.162 | interaction score (4H363-bN): 0.903 | interaction score (4H3907-bN): 0.321 | interaction score (4H470-bN): -0.702

B5: 4H1985-bA (peptide)
chain: DENAQLKQKNAELKQEIAELEWEIAQLEQ
interaction score (4H3638-bA): -0.944 | interaction score (4H591-bA): -1.46 | interaction score (4H3462-bA): -0.708 | interaction score (4H3414-bA): -1.09 | interaction score (4H3175-bA): -1.53 | interaction score (4H906-bA): -1.08 | interaction score (4H3613-bA): -1.14 | interaction score (O8-bN): -2.01 | interaction score (4H570-bH): -0.714 | interaction score (4H584-bA): -1.42 | interaction score (4H3162-bA): -1.66 | interaction score (4H3631-bA): -1.21 | interaction score (4H3172-bA): -0.781 | interaction score (4H3129-bA): -1.14 | interaction score (4H3858-bA): -1.31 | interaction score (4H626-bA): -1.19 | interaction score (4H850-bA): -1.45 | interaction score (4H3497-bA): -1.03 | interaction score (4H953-bA): -1.8 | interaction score (4H3974-bA): -0.265 | interaction score (4H3817-bA): -0.287 | interaction score (4H570-bA): -1.97 | interaction score (4H3628-bA): -1.35 | interaction score (4H1985-bA): -0.898 | interaction score (4H3926-bA): -1.07 | interaction score (4H619-bA): -0.916 | interaction score (4H3277-bA): -0.983 | interaction score (4H3298-bA): -0.906

B6: P5mSN (peptide)
chain: DENSQLEEKISQLKQKNSELKEEIQQLEY
interaction score (P7mSN): -0.763 | interaction score (P8mSN): -0.632 | interaction score (P6mSN): 0.0393 | interaction score (P5mSN): -1.4

B7: 4H4038-bH (peptide)
chain: DKNQELKKKNEELKREIWELEKKIQELKR
interaction score (4H4038-bH): 0.656

B8: P4A (peptide)
chain: DKIAQLKQKIQALKQENQQLEEENAALEY
interaction score (P6A): -1.35 | interaction score (P5A): -2.12 | interaction score (P4A): -2.18 | interaction score (P7A): -2.13 | interaction score (P8A): -1.42 | interaction score (P9A): -1.08

B9: 4H3907-bH (peptide)
chain: DKNQELKKKIEELKREIWELEKENQELER
interaction score (4H3907-bH): 0.462 | interaction score (4H470-bH): -0.458 | interaction score (4H4038-bH): -0.272 | interaction score (4H3961-bH): -0.402
